Test results published in patent US20110123532A1 (ONCOMED PHARMACEUTICALS, published 2011).

How the values were obtained:
[1] = target: T1, full length human DLL4 on transfected human 293 HEK cells (human, UniProt Q9NR61 27-685); assay: flow cytometry on human 293 HEK cells transfected with full length human DLL4 and GFP; goat anti-human IgG H/L-PE; MFI against log(nM), non-linear fit
T1 construct: whole, on cells; also called hDLL4 transfected cells; human DLL4 transfected cells

[2] = target: T1, full length human DLL4 on transfected …; assay: flow cytometry on HEK 293 cells transfected with human DLL4; reference 21M18
Method: Briefly, Human 293 HEK cells were transfected using Fugene 6 transfection reagent as recommended by the manufacturer (Roche Inc.). Cells were transfected with cDNA expression vector encoding full length human DLL4, as well as a second vector encoding green fluorescent protein, pcDNA-GFP, to mark the transiently transfected cells. […] Cells were then rinsed twice with Staining Medium (HBSS with 2% FCS) and incubated with fluorescent secondary antibody, goat-anti-human IgG H/L-phycoerythrin (PE), at 1:200 dilution in PBS for 1 hour. Cells were then analyzed by flow cytometry using a FACS Caliber instrument (BD Bioscience). Specific SBGSP binding was assessed by determining the presence of cells positive for GFP signal and PE signal.

human VEGF [3] = target: T2, human VEGF (human, UniProt P15692-4 27-191); assay: SPR (Biacore), VEGF surface; reference 219R0202 IgG
T2 construct: Immobilised on a CM5 chip for Biacore; the same name is used for the rhVEGF of the HUVEC assay; also called hVEGF; rhVEGF

human VEGF [4] = target: T2, human VEGF; assay: SPR (Biacore), VEGF surface
[5] = target: the molecule itself; assay: non-reducing western blot of conditioned medium of transfected HEK293 cells, anti-FLAG (left, middle) and anti-Fc (right); homodimer of the minibody
Description: Var1 contains amino acid 249 Lys to Glu substitution and amino acid 288 Lys to Glu substitution within the CH3 domain. Antibody Var2 contains substitutions of amino acid 249 Lys to Glu substitution, amino acid 286 Tyr to Phe, and amino acid 288 Lys to Glu within the CH3 domain. Antibody Var3 (also referred to as 13A) contains substitutions of amino acid 236 Glu to Lys and amino acid 278 Asp to Lys. HEK293 cells were transiently transfected with combinations of expression vectors as indicated. Non-reducing Western blot analysis was conducted with an anti-FLAG antibody to reveal the size of the secreted antibody products.
Amino acid substitutions were introduced into either a truncated heavy chain (termed mini-body) containing the linker and CH2-CH3 region of a heavy chain, or a full length antibody heavy chain heavy chain.

human VEGF [6] = target: T2, human VEGF; assay: SPR (Biacore 2000), recombinant VEGF immobilised on CM5, IgG injected
Method: (§1) IgG affinities were determined using a Biacore 2000 instrument. Briefly, recombinant proteins were immobilized on a CM5 chip using standard amine based chemistry (NHS/EDC). For each Fab and IgG, different concentrations (100-1 nM) were injected over the surface and kinetic data were collected over time. The data was fit using the simultaneous global fit equation to yield affinity constants (KD) for each Fab and IgG.

mouse VEGF = target: T3, mouse VEGF (mouse, UniProt Q00731-2 27-190, limits assumed); assay: as above
T3 construct: also called mVEGF
T3 sequence (looked up): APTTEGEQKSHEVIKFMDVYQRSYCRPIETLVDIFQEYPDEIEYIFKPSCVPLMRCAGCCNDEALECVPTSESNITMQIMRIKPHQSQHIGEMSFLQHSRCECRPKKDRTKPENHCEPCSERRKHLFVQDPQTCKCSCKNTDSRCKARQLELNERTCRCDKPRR
Method: as §1

B1: 219R0202-21M18 single gene bispecific antibody (SGBSP) (bispecific antibody, human IgG2, kappa)
chain 1: DIQLTQSPSSLSASVGDRVTITCRASQGINNHLAWYQQKPGKVPKSLIYAASNLHSGVPSKFSGSGSGTHFTLIISSLQPEDIATYYCQQYDNLPLTFGGGTKVEIKRTVAAPSVFIFPPSDEQLKSGTASVVCLLNNFYPREAKVQWKVDNALQSGNSQESVTEQDSKDSTYSLSSTLTLSKADYEKHKVYACEVTHQGLSSPVTKSFNRGECGGGGGSGGGGSGGGGSGGGGSGGGGSGGGGSQVQLKQSGAELVKPGASVKLSCKASGYTFTNYWMHWVKLRPGQGFEWIGDINPSNGGTSYNEKFKRKATLTVDKSSSTAYMQLSSLTSEDSAVYYCTIHYYDNSYAMDYWGQGTSVTVSSASTKGPSVFPLAPCSRSTSESTAALGCLVKDYFPEPVTVSWNSGALTSGVHTFPAVLQSSGLYSLSSVVTVPSSNFGTQTYTCNVDHKPSNTKVDKTVERKCCVECPPCPAPPVAGPSVFLFPPKPKDTLMISRTPEVTCVVVDVSHEDPEVQFNWYVDGVEVHNAKTKPREEQFNSTFRVVSVLTVVHQDWLNGKEYKCKVSNKGLPAPIEKTISKTKGQPREPQVYTLPPSREKMTKNQVSLTCLVKGFYPSDIAVEWESNGQPENNYKTTPPMLKSDGSFFLYSKLTVDKSRWQQGNVFSCSVMHEALHNHYTQKSLSLSPGK
chain 2: DIVMTQSPDSLAVSLGERATISCRASESVDNYGISFMKWFQQKPGQPPKLLIYAASNQGSGVPDRFSGSGSGTDFTLTISSLQAEDVAVYYCQQSKEVPWTFGGGTKVEIKRTVAAPSVFIFPPSDEQLKSGTASVVCLLNNFYPREAKVQWKVDNALQSGNSQESVTEQDSKDSTYSLSSTLTLSKADYEKHKVYACEVTHQGLSSPVTKSFNRGECGGGGSGGGGSGGGGSGGGGSGGGGSGGGGSQVQLVQSGAEVKKPGASVKISCKASGYSFTAYYIHWVKQAPGQGLEWIGYISSYNGATNYNQKFKGRVTFTTDTSTSTAYMELRSLRSDDTAVYYCARDYDYDVGMDYWGQGTLVTVSSASTKGPSVFPLAPCSRSTSESTAALGCLVKDYFPEPVTVSWNSGALTSGVHTFPAVLQSSGLYSLSSVVTVPSSNFGTQTYTCNVDHKPSNTKVDKTVERKCCVECPPCPAPPVAGPSVFLFPPKPKDTLMISRTPEVTCVVVDVSHEDPEVQFNWYVDGVEVHNAKTKPREEQFNSTFRVVSVLTVVHQDWLNGKEYKCKVSNKGLPAPIEKTISKTKGQPREPQVYTLPPSREEMTKNQVSLTCLVEGFYPSDIAVEWESNGQPENNYKTTPPMLDSDGSFFLYSELTVDKSRWQQGNVFSCSVMHEALHNHYTQKSLSLSPGK
notes: Heterodimer of two single-gene chains, anti-VEGF arm (13A) and anti-DLL4 arm (13B), IgG2; also called 219R0202_21M18 SGBSP; 219R0202-21M18 SGBSP
EC50 [1]: 10.2 nM | fold loss in DLL4 binding activity compared to 21M18 [2]: ~5 fold | fold weaker binding affinity than 219R0202 (human VEGF [3]): ~5 fold | Kd (human VEGF [4]): 6.9 nM

B2: 219R0202-21M18 monovalent bispecific antibody (MBSP) with common 21M18 light chain (bispecific antibody, human IgG2, kappa)
heavy 1: QVQLKQSGAELVKPGASVKLSCKASGYTFTNYWMHWVKLRPGQGFEWIGDINPSNGGTSYNEKFKRKATLTVDKSSSTAYMQLSSLTSEDSAVYYCTIHYYDNSYAMDYWGQGTSVTVSSASTKGPSVFPLAPCSRSTSESTAALGCLVKDYFPEPVTVSWNSGALTSGVHTFPAVLQSSGLYSLSSVVTVPSSNFGTQTYTCNVDHKPSNTKVDKTVERKCCVECPPCPAPPVAGPSVFLFPPKPKDTLMISRTPEVTCVVVDVSHEDPEVQFNWYVDGVEVHNAKTKPREEQFNSTFRVVSVLTVVHQDWLNGKEYKCKVSNKGLPAPIEKTISKTKGQPREPQVYTLPPSREKMTKNQVSLTCLVKGFYPSDIAVEWESNGQPENNYKTTPPMLKSDGSFFLYSKLTVDKSRWQQGNVFSCSVMHEALHNHYTQKSLSLSPGK
heavy 2: QVQLVQSGAEVKKPGASVKISCKASGYSFTAYYIHWVKQAPGQGLEWIGYISSYNGATNYNQKFKGRVTFTTDTSTSTAYMELRSLRSDDTAVYYCARDYDYDVGMDYWGQGTLVTVSSASTKGPSVFPLAPCSRSTSESTAALGCLVKDYFPEPVTVSWNSGALTSGVHTFPAVLQSSGLYSLSSVVTVPSSNFGTQTYTCNVDHKPSNTKVDKTVERKCCVECPPCPAPPVAGPSVFLFPPKPKDTLMISRTPEVTCVVVDVSHEDPEVQFNWYVDGVEVHNAKTKPREEQFNSTFRVVSVLTVVHQDWLNGKEYKCKVSNKGLPAPIEKTISKTKGQPREPQVYTLPPSREEMTKNQVSLTCLVEGFYPSDIAVEWESNGQPENNYKTTPPMLDSDGSFFLYSELTVDKSRWQQGNVFSCSVMHEALHNHYTQKSLSLSPGK
light: DIVMTQSPDSLAVSLGERATISCRASESVDNYGISFMKWFQQKPGQPPKLLIYAASNQGSGVPDRFSGSGSGTDFTLTISSLQAEDVAVYYCQQSKEVPWTFGGGTKVEIKRTVAAPSVFIFPPSDEQLKSGTASVVCLLNNFYPREAKVQWKVDNALQSGNSQESVTEQDSKDSTYSLSSTLTLSKADYEKHKVYACEVTHQGLSSPVTKSFNRGEC
notes: also called 219R0202_21M18 MBSP
EC50 [1]: 6.2 nM | fold loss in DLL4 binding activity compared to 21M18 [2]: ~3 fold | fold weaker binding affinity than 219R0202 (human VEGF [3]): ~14 fold | Kd (human VEGF [4]): 21 nM

B3: 21M18 (antibody, V domains shown)
VH: QVQLVQSGAEVKKPGASVKISCKASGYSFTAYYIHWVKQAPGQGLEWIGYISSYNGATNYNQKFKGRVTFTTDTSTSTAYMELRSLRSDDTAVYYCARDYDYDVGMDYWGQGTLVTVSS
VL: DIVMTQSPDSLAVSLGERATISCRASESVDNYGISFMKWFQQKPGQPPKLLIYAASNQGSGVPDRFSGSGSGTDFTLTISSLQAEDVAVYYCQQSKEVPWTFGGGTKVEIKR
notes: also called 21M18 antibody; anti-human DLL4 (21M18)
EC50 [1]: 2 nM

B4: Homo 13B (21M18) (antibody, human IgG2, kappa, V domains shown)
VH: QVQLVQSGAEVKKPGASVKISCKASGYSFTAYYIHWVKQAPGQGLEWIGYISSYNGATNYNQKFKGRVTFTTDTSTSTAYMELRSLRSDDTAVYYCARDYDYDVGMDYWGQGTLVTVSS
VL: DIVMTQSPDSLAVSLGERATISCRASESVDNYGISFMKWFQQKPGQPPKLLIYAASNQGSGVPDRFSGSGSGTDFTLTISSLQAEDVAVYYCQQSKEVPWTFGGGTKVEIKR
notes: also called 21M18 HC (with 13B mutation) expressed only with 21M18 LC
EC50 [1]: 7.7 nM

B5: FLAG tagged minibody with wild type human IgG2 CH2 and CH3 domains (WT) (other)
chain: DYKDDDDKCVECPPCPAPPVAGPSVFLFPPKPKDTLMISRTPEVTCVVVDVSHEDPEVQFNWYVDGVEVHNAKTKPREEQFNSTFRVVSVLTVVHQDWLNGKEYKCKVSNKGLPAPIEKTISKTKGQPREPQVYTLPPSREEMTKNQVSLTCLVKGFYPSDIAVEWESNGQPENNYKTTPPMLDSDGSFFLYSKLTVDKSRWQQGNVFSCSVMHEALHNHYTQKSLSLSPGK
notes: also called WT minibody
binding result [5]: binds

B6: FLAG tagged minibody variant Var1 (13B) (other)
chain: DYKDDDDKCVECPPCPAPPVAGPSVFLFPPKPKDTLMISRTPEVTCVVVDVSHEDPEVQFNWYVDGVEVHNAKTKPREEQFNSTFRVVSVLTVVHQDWLNGKEYKCKVSNKGLPAPIEKTISKTKGQPREPQVYTLPPSREEMTKNQVSLTCLVEGFYPSDIAVEWESNGQPENNYKTTPPMLDSDGSFFLYSELTVDKSRWQQGNVFSCSVMHEALHNHYTQKSLSLSPGK
binding result [5]: binds

B7: 219R0302 IgG (anti-VEGF antibody reformatted to IgG2) (antibody, V domains shown)
VH: QVQLKQSGAELVKPGASVKLSCKASGYTFTNYWMHWVKLRPGQGFEWIGDINPSNGGTSYNEKFKRKATLTVDKSSSTAYMQLSSLTSEDSAVYYCTIHYYDNSYAMDYWGQGTSVTVSS
VL: DIQMTQSPSSLSASVGDRVTITCQASQDISNYVNWYQQKPGKAPKLLIYDASNLQTGVPSRFSGRGSGTHFTFTISSLQPEDLATYYCQQYDDLPPTFGRGTKLEIKR
notes: Mouse VH from immunised mice paired with a human kappa light chain from a phagemid library; also called 21R0302
Kd (human VEGF [6]): 2.1 nM | Kd (mouse VEGF): 21 nM | Kd (human VEGF [4]): 2.1 nM

B8: 219R0202 IgG (anti-VEGF antibody reformatted to IgG2) (antibody, V domains shown)
VH: QVQLKQSGAELVKPGASVKLSCKASGYTFTNYWMHWVKLRPGQGFEWIGDINPSNGGTSYNEKFKRKATLTVDKSSSTAYMQLSSLTSEDSAVYYCTIHYYDNSYAMDYWGQGTSVTVSS
VL: DIQLTQSPSSLSASVGDRVTITCRASQGINNHLAWYQQKPGKVPKSLIYAASNLHSGVPSKFSGSGSGTHFTLIISSLQPEDIATYYCQQYDNLPLTFGGGTKVEIKR
notes: Light chain variant of 219R0302 with the same heavy chain
Kd (human VEGF [6]): 1.5 nM | Kd (mouse VEGF): 23 nM | Kd (human VEGF [4]): 1.5 nM
